Assay results from article PMC4769699 (Environmental microbiology reports, 2015).

Biological target: the molecule itself
Experiment: native MS

B1: AmrZ1-66 (AmrZ without the C-terminal domain) (domain or fragment)
chain: MRPLKQATPTYSSRTADKFVVRLPEGMREQIAEVARSHHRSMNSEIIARLEQSLLQEGALQDNLGV
stoichiometry N: 2
